In the supplement of paper PMC9170038:

System: MS2 coat protein
Assay: apparent KD of MS2 coat protein; designed switch direction (-1 OFF switch, 1 ON switch): -1; higher = weaker reporter binding
How it was run: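 For each design, the apparent KD is the median over clusters of curves fitted to normalised cluster fluorescence. Clusters held RNA switches with common flanks, transcribed on Illumina chips by stalled E. coli RNA polymerase. These were titrated with SNAP-549-labelled MS2 coat protein, doubling from 0.7 or 1.5 nM to 3 µM, without input, with 200 uM small-molecule ligand, or with an oligonucleotide input.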

[1] = Eterna round: R95, input ligand: FMN 200 uM
[2] = Eterna round: R95, input ligand: microRNA oligo, concentration not stated
[3] = Eterna round: R95, input ligand: none
[4] = input ligand: microRNA oligo, concentration not stated

| Sequence | apparent KD of MS2 coat protein [1] [nM] | apparent KD of MS2 coat protein [2] [nM] | apparent KD of MS2 coat protein [3] [nM] | apparent KD of MS2 coat protein (input ligand: FMN 200 uM) [nM] | apparent KD of MS2 coat protein [4] [nM] | apparent KD of MS2 coat protein (input ligand: none) [nM] |
| --- | --- | --- | --- | --- | --- | --- |
| CGAAGUAGAAACCGAUCCUACAUGAGGAUCACCCAUGUAGCAAGACGUGCACGCGAAGCUCGUCAGACUACCAGAAU [salish99_TOv1_r3_015] (puzzle: Sensor v3, turn-off variant 1) | 212 | 257 | 430 | – | – | – |
| GCAGCACAUGUAGGAUAUCUGCACGAUUAGUGCAGAGAAGGACAUGAGGAUCACCCAUGUAAUUAAGAUCAAUUAUUAAGCUGC [ENG1/3-C1] (Eterna round: R96, puzzle: Exclusion NG 1) | – | – | – | 374 | 36.4 | 46.1 |
| CUAGACCGAGGAUAUAUUAUGUGAAACAUGAGGAUCACCCAUGUAAUAUGAUGGAUGUAAAUAGAAGGCGGUCUAG [Mat - Exclusion 5 - JL mod - D29] (puzzle: Exclusion 5) | 31.4 | 53.4 | 23 | – | – | – |
| AAUAACAGAGGAUAUACUAUUUUAUGUGUUUGUUAUUUUGAACAUGAGGAUCACCCAUGUAGAAGGCUGAAUAA [JMF 22] (puzzle: Exclusion 2) | – | 21.7 | – | – | – | – |
| CGAUGAGGAGUGAGGAUAUCGUGUUCGAAAGAACGUGAGAAGGCACAUGAGGAUCACCCAUGUGAUUCUUGUCG [Omei Ex4B A18] (Eterna round: R97, puzzle: Brourd's mod of Exclusion 4) | – | – | – | 77.6 | – | 22.2 |
| AUAUCACAUGAGGAUCACCCAUGUCAGGAUAUGAUACUAUGUACUUCGGUACAUAGUAUCAGAAGGGAUAUGAA [Ex1-3: 66] (Eterna round: R96, puzzle: Exclusion 1) | – | – | – | 83.3 | 29.2 | 40.3 |
| AAAUGUGCGAGAGGAUAUCGUGUACAAAGUACACGAGAAGGCUUCACAUGAGGAUCACCCAUGUACCGAGGUGAAACACCUUGA [Omei Exc(NG)1 Bv4] (Eterna round: R96, puzzle: Exclusion NG 1) | – | – | – | 599 | 149 | 198 |
| UUUCGGCAUGUAGGAUAUGGGUCCGAUUAGGAUUUAGAAGGACAUGAGGAUCACCCAUGUGCAUUUAAUUGGUCAUUACCGUUU [EXclNG1-LROPPY09] (Eterna round: R96, puzzle: Exclusion NG 1) | – | – | – | 86.7 | 47.8 | 66 |
| AAAUUCAGAGGAUAUGCGCAUAGAUAAGACUUUUUUUUUUAACAUGAGGAUCACCCAUGUAGAAGGCUGUAAAU [Ex2 #52] (Eterna round: R97, puzzle: Exclusion 2) | – | – | – | 24 | – | 25.5 |
| AAUUAAUAUCAGGAUAUGACGUGCUGCGGCACGUCAGAAGGGAUGACAUGAGGAUCACCCAUGUGAUCAAUUAA [E6/1-A3] (Eterna round: R97, puzzle: Exclusion 6) | – | – | – | 114 | – | 22.1 |
| CAUUAUUAUCGAGGAUAUCCUAUUGUAAUUCUGGGAGAAGGCGGACUCAACAUGAGGAUCACCCAUGUAAGACGGGUACUAGAG [Ex NG1 #23] (Eterna round: R96, puzzle: Exclusion NG 1) | – | – | – | 85.1 | 49.3 | 74.8 |
| CCGCUCCGUGUAGGAUAUCGCUGUACCCUGCGGCGAGAAGGACAUGAGGAUCACCCAUGUAUGUUAUUAUCACGCGUGGCGCAC [Design 72] (Eterna round: R96, puzzle: Exclusion NG 1) | – | – | – | 16 | 12.4 | 16.4 |
| GCGCAAACGCCAAAAGGCGAAACAACAUGAGGAUCACCCAUGUAGGAUAUCGAUUGCUUUGCAGUCGAGAAGGGCAUAAUGCGC [JL ENG3 3.80 Mod 4] (Eterna round: R96, puzzle: Exclusion NG 3) | – | – | – | 15.4 | 13 | 16.6 |
| AAAGAGCUAGGAUAUCGCGACCUUGACAUGAGGAUCACCCAUGUGCCCUCGUAACAACGACGAGAAGGAGCGAAAA [Gelaladied] (puzzle: Exclusion 5) | 36.2 | 16.8 | 19.9 | – | – | – |
| AAAUAACAAGCGAGAUCCUACAUGAGGAUCACCCAUGUGCUCGUCUUAAGAAGUACUAUCACGAAAGUGAUAGUACA [Mat - Sensor v3 - turn-off var 1 - Eli Mod - D68] (puzzle: Sensor v3, turn-off variant 1) | 17.6 | 66 | 14.7 | – | – | – |
| UUCGUGCAGCUUUGCUGUACGAGUACAUGAGGAUCACCCAUGUAGGAUAUGGUACGCUUUGCGUGCUAGAAGGAUAUGUGUAGG [JL EXNG3 1.37] (Eterna round: R96, puzzle: Exclusion NG 3) | – | – | – | 55.5 | 27.5 | 43.9 |
| GACCUCACGGUCAGGAUAUCAGAACGGAAUGCGCAUGAGAAGGGACAUGAGGAUCACCCAUGUGGGCUCGUCGC [Eddionce] (puzzle: Brourd's mod of Exclusion 4) | 21.6 | 13.9 | 17.9 | – | – | – |
| UACUUGUUAGGAUAUCUUACAUUUGCAUUAUAGCAACUAUUGGAGAAGGGACAUGAGGAUCACCCAUGUUUGGG [tap-tap-tappy16] (Eterna round: R97, puzzle: Exclusion 4) | – | – | – | 602 | – | 486 |
| UAAUAUCUGCAGGAUAUCGGUGUAGCACGCGUAUGAGAAGGGCAGACAUGAGGAUCACCCAUGUAUUAUAUCCG [Eternabot (L2) Solution 39] (Eterna round: R97, puzzle: Exclusion 6) | – | – | – | 34.8 | – | 24.5 |
| UUAUACAAGCAAAGAUCCCACAUGAGGAUCACCCAUGUGCUCGUCUUAUAAGGAUCUGUGACGAAAGUCACGGAUCC [Mat - Sensor, turn-off var - Eli Mod - D101] (Eterna round: R97, puzzle: Sensor, turn-off variant 1) | – | – | – | 43.3 | – | 35.7 |
| AAAGAAACAUGAGGAUCACCCAUGUCUGAUCCAAUGUUUAGUCAGGAUAUGCGUCCGACUUCGGAGCAGAAGGGAUACAGGUAG [Anlaanma] (Eterna round: R96, puzzle: Exclusion NG 3) | – | – | – | 125 | 357 | 356 |
| UUUUUCGAACAAGCUACGUACAUGAGGAUCACCCAUGUCGGUAGAUUUGAGUAGGUUUGGAUGGAAGCUCGUCUUAU [JR_SV3TOV1_Sub085] (puzzle: Sensor v3, turn-off variant 1) | 19.4 | 28.2 | 19.5 | – | – | – |
| GAGGUGUUAGGAUAUCGGAGAUGGAGAAGAACGGGAAGAGGCGAGAAGGAACAUGAGGAUCACCCAUGUAGGUG [JR_Exclu4_Sub029] (puzzle: Exclusion 4) | – | 357 | – | – | – | – |
| AGCUGUGGCCGAGGAUAUCACGAACCAUGGAAAACCAUGGAACUCAAACAUGAGGAUCACCCAUGUGAGAAGGCGGUCUCAGCA [Eli eng2 - 018] (Eterna round: R96, puzzle: Exclusion NG 2) | – | – | – | – | 15.2 | – |
| CGUAAAAGGAAGGAUAUGCUAGACGAAAGUCUAGCAGAAGGUCCUACAUGAGGAUCACCCAUGUGUCCUAUACG [Mat - Exclusion 6 - Eli Mod - D12] (Eterna round: R97, puzzle: Exclusion 6) | – | – | – | 80.5 | – | 49.8 |
